These results are taken from patent US8344120B2, “Nucleic acid molecules encoding rage fusion proteins” (TransTech Pharma, Inc., priority 2006, dated 2013).

Data set [1] has as its system Fc receptor. Description: Fc receptor activation: TNF-α secretion from THP-1 cells. It counts as cell-based. The text has this: Fc stimulation results in TNF-α secretion.
The test system of data set [2] is animal model of stroke. Put plainly: Animal model of stroke (ischemia/reperfusion). Format: in vivo, mice. The conditions noted are these: treated just prior to reperfusion. Here is the method: For example, the RAGE fusion proteins of the present invention may also be used to treat stroke. […] In this model, the […] of a mouse is ligated and then reperfused to form an infarct. To assess the efficacy of RAGE fusion proteins to treat or prevent stroke, mice were treated with sRAGE or TTP-4000 or control immunoglobulin just prior to reperfusion. […] TTP-4000 was also compared to sRAGE in a disease relevant animal model of stroke. In this model, the […] of a mouse was ligated for 1 hour followed by 23 hours of reperfusion at which point the mice were sacrificed and the area of the infarct in the brain was assessed. […] After the nylon suture had been in place for 1 hour, the animal was re-anesthetized, rectal temperature was recorded and the suture was removed and the incision closed. Infarct volume was determined by anesthetizing the animals with an intraperitoneal injection of sodium pentobarbital (50 mg/kg) and then removing the brains. […] The infarct area in each section was determined with a computer-assisted image analysis system, consisting of a Power Macintosh computer equipped with a Quick Capture frame grabber card, Hitachi CCD camera mounted on a camera stand. […] The images were captured and the total area of infarct was determined over the sections. […] Summing the infarct volumes of the sections calculated the total infarct volume. […]

In data set [3] the target is T1, amyloid-beta (Abeta) (Homo sapiens, UniProt P05067).
T1 construct: Amyloid Beta (1-40) from Biosource; purchased Biosource
T1 sequence (P05067 672-711 limits assumed): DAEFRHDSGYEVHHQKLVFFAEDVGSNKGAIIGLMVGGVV
Description: In vitro ligand binding ELISA, immobilized amyloid-beta. The conditions noted are these: ligand 5 micrograms per well; fusion protein at increasing dilutions, 37° C. one hour. Here is the method:
For example, the RAGE fusion protein may be used in a binding assay to identify potential RAGE ligands. In one example embodiment of such a binding assay, a known RAGE ligand may coated onto a solid substrate (e.g., Maxisorb plates) at a concentration of about 5 micrograms per well, where each well contains a total volume of about 100 microliters (4). The plates may be incubated at 4° C. overnight to allow the ligand to absorb or bind to the substrate. Alternatively, shorter incubation periods at higher temperature (e.g., room temperature) may be used. […] The RAGE fusion protein bound to the immobilized ligand may be detected in a variety of ways. […] The bound complex may be detected by adding the alkaline phosphatase substrate, para-nitrophenylphosphate (PNPP), and measuring conversion of PNPP to para-nitrophenol (PNP) as an increase in absorbance at 405 nm. […] In the absence of ligand (i.e., coating with only BSA) there was no increase in absorbance. […] Binding was detected by the addition of an immunodetection complex containing a monoclonal mouse anti-human IgG1 diluted 1:11,000 to a final assay concentration (FAC) of 21 ng/100 μL, a biotinylated goat anti-mouse IgG diluted 1:500, to a FAC of […], and an avidin-linked alkaline phosphatase. […]

B1: TTP-4000: four domain RAGE fusion protein: human RAGE N-terminal sequence (to position 251) linked to human IgG Fc (γ1) without hinge; SEQ ID NO: 34/56 (protein)
chain: QNITARIGEPLVLKCKGAPKKPPQRLEWKLNTGRTEAWKVLSPQGGGPWDSVARVLPNGSLFLPAVGIQDEGIFRCQAMNRNGKETKSNYRVRVYQIPGKPEIVDSASELTAGVPNKVGTCVSEGSYPAGTLSWHLDGKPLVPNEKGVSVKEQTRRHPETGLFTLQSELMVTPARGGDPRPTFSCSFSPGLPRHRALRTAPIQPRVWEPVPLEEVQLVVEPEGGAVAPPSVFLFPPKPKDTLMISRTPEVTCVVVDVSHEDPEVKFNWYVDGVEVHNAKTKPREEQYNSTYRVVSVLTVLHQDWLNGKEYKCKVSNKALPAPIEKTISKAKGQPREPQVYTLPPSRDELTKNQVSLTCLVKGFYPSDIAVEWESNGQPENNYKTTPPVLDSDGSFFLYSKLTVDKSRWQQGNVFSCSVMHEALHNHYTQKSLSLSPGK
For the molecule B1, the “stimulation of TNF-α release from cells” value in data set [1] (conditions where human IgG stimulation of TNF-α release is detected) is recorded as “does not stimulate TNF-α release”. Further, the TNF generated result in data set [1] (well precoated with 10 ug/well heat aggregated protein, THP-1 cells, 24 hours) is on record as “less than 2 ng/well”. Moreover, the “reduction in infarct volume compared to sRAGE” value in data set [2] is given as “significantly greater reduction in infarct volume”. Also, the “binding to immobilized amyloid-beta (increase in absorbance at 405 nm)” value in data set [3] was “specifically interact”.
